Test results as given in article PMC12455949 (Journal of Virology, 2025).
Values joined by “and” are separate entries in the source; they are usually repeats but may differ in a detail not shown here. Equal entries are not always repeated.

Key:
Assay in all cases: BLI
Conditions in all cases: both partners purified
[1] = biological target: A/Panama/2007/1999 HA, recombinant soluble (rHA) (Influenza A virus A/Panama/2007/1999 …, UniProt Q1K9M3, strain)
[2] = biological target: A/Switzerland/9715293/2013 HA, recombinant soluble (rHA) (Influenza A virus …, strain)
[3] = biological target: A/Texas/50/2012 HA, recombinant soluble (rHA) (Influenza A virus A/Texas/50/2012 (H3N2), UniProt R4L1D1, strain)
[4] = biological target: COBRA HA NG2, recombinant soluble (rHA) (Influenza A virus H3, designed COBRA NG2)
[5] = biological target: COBRA HA TJ2, recombinant soluble (rHA) (Influenza A virus H3, designed COBRA TJ2)
[6] = biological target: A/Perth/16/2009 HA, recombinant soluble (rHA) (Influenza A virus A/Perth/16/2009 (H3N2), UniProt C6KNH7, strain)
[7] = biological target: COBRA HA J4, recombinant soluble (rHA) (Influenza A virus H3, designed COBRA J4)
[8] = biological target: A/Port Chalmers/1/1973 HA, recombinant soluble (rHA) (Influenza A virus A/Port …, UniProt Q1PUD9, strain)
A/Victoria/361/2011 HA = A/Victoria/361/2011 HA (Influenza A virus A/Victoria/361/2011 …, UniProt A0A097PF39, strain)
[9] = biological target: A/Port Chalmers/1/1973 HA (Influenza A virus A/Port …, UniProt Q1PUD9, strain)
[10] = biological target: A/Switzerland/9715293/2013 HA (Influenza A virus …, strain)
A/Perth/16/2009 HA = A/Perth/16/2009 HA (Influenza A virus A/Perth/16/2009 (H3N2), UniProt C6KNH7, strain)
A/Texas/50/2012 HA = A/Texas/50/2012 HA (Influenza A virus A/Texas/50/2012 (H3N2), UniProt R4L1D1, strain)
A/Panama/2007/1999 HA = A/Panama/2007/1999 HA (Influenza A virus A/Panama/2007/1999 …, UniProt Q1K9M3, strain)
[11] = biological target: A/Victoria/361/2011 HA, recombinant soluble (rHA) (Influenza A virus A/Victoria/361/2011 …, UniProt A0A097PF39, strain)

B1: mAb #1664 (antibody, V domains shown)
VH: EVQVMQSGAEARMTGATVKISCKASGYTFSDYFLHWVKQAPGKGLEWMGLVDVDNGEVRYAEKFQGRVTITADTSTETAYLEMTTVTSGDTAVYYCASTTPRGGNPSVYNYFFVDVWGKGTTVTVSS
VL: QPVLTQSSSASASLGSSVKLTCTLSSGHDNYIIAWHQQQPGKAPRYLMQVGAGGTYNKGSGVPHRFSGSSSGADRYLTISNLQSDDEADYYCETWDSKTVFGGGTTLTVL
notes: copies: 2 + 2
Kd [1]: 18200 pM and 14700 pM
Kd [2]: 286000 pM and 222000 pM
Kd [3]: 730 pM and 1130 pM
Kd [4]: 135000 pM and 143000 pM
Kd [5]: 470 pM and 430 pM
Kd [6]: 420 pM and 200 pM
Kd [7]: 12800 pM and 17700 pM
binding result [8]: no binding (tested: 1350 nM)

B2: mAb #1664 (antibody, V domains shown)
VH: EVQVMQSGAEARMTGATVKISCKASGYTFSDYFLHWVKQAPGKGLEWMGLVDVDNGEVRYAEKFQGRVTITADTSTETAYLEMTTVTSGDTAVYYCASTTPRGGNPSVYNYFFVDVWGKGTTVTVSS
VL: QPVLTQSSSASASLGSSVKLTCTLSSGHDNYIIAWHQQQPGKAPRYLMQVGAGGTYNKGSGVPHRFSGSSSGADRYLTISNLQSDDEADYYCETWDSKTVFGGGTTLTVL
Kd (A/Victoria/361/2011 HA): 840 pM
koff (A/Victoria/361/2011 HA): 8.98e-05 s⁻¹
kon (A/Victoria/361/2011 HA): 119000 M⁻¹ s⁻¹
binding result [9]: no binding (tested: 100 nM rHA (exploratory assays))
Kd [10]: 254000 pM
koff [10]: 0.00379 s⁻¹
kon [10]: 15000 M⁻¹ s⁻¹
Kd (A/Perth/16/2009 HA): 310 pM
koff (A/Perth/16/2009 HA): 3.36e-05 s⁻¹
kon (A/Perth/16/2009 HA): 108000 M⁻¹ s⁻¹
Kd (A/Texas/50/2012 HA): 930 pM
koff (A/Texas/50/2012 HA): 9.08e-05 s⁻¹
kon (A/Texas/50/2012 HA): 98300 M⁻¹ s⁻¹
Kd (A/Panama/2007/1999 HA): 16400 pM
koff (A/Panama/2007/1999 HA): 0.00179 s⁻¹
kon (A/Panama/2007/1999 HA): 109000 M⁻¹ s⁻¹

B3: mAb TJ5-1 (antibody, V domains shown)
VH: EVQLVQSGAEVKKPGASVKVSCKASGYTFTGFYLHWVRQAPGQGLEWMGWINPHSGDTDFAQKFQGKVTMTRDTSSNTVYMDVNRLTSDDTAVYYCVKNDIVLGMGVWGQGTTVIVSS
VL: QSVLTQPPSVSGAPGQRVTISCTGSSSNIGAGYNVYWFQQLPPTAPKLLNYGDNNRPSGVPDRFSASKSGTSASLAITGLQAEDEAEYYCQSYDSSLNAYVFGTGTKVTVL
Kd [1]: 150 pM and 170 pM
Kd [2]: 590 pM and 670 pM
Kd [3]: 210 pM and 390 pM
Kd [5]: 3280 pM and 8010 pM
Kd [11]: 620 pM and 1100 pM
Kd [6]: 130 pM and 140 pM
Kd [7]: 300 pM and 160 pM
Kd [8]: 7130 pM and 13100 pM

B4: mAb TJ5-1 (antibody, V domains shown)
VH: EVQLVQSGAEVKKPGASVKVSCKASGYTFTGFYLHWVRQAPGQGLEWMGWINPHSGDTDFAQKFQGKVTMTRDTSSNTVYMDVNRLTSDDTAVYYCVKNDIVLGMGVWGQGTTVIVSS
VL: QSVLTQPPSVSGAPGQRVTISCTGSSSNIGAGYNVYWFQQLPPTAPKLLNYGDNNRPSGVPDRFSASKSGTSASLAITGLQAEDEAEYYCQSYDSSLNAYVFGTGTKVTVL
Kd (A/Victoria/361/2011 HA): 860 pM
koff (A/Victoria/361/2011 HA): 0.000195 s⁻¹
kon (A/Victoria/361/2011 HA): 228000 M⁻¹ s⁻¹
Kd [10]: 630 pM
koff [10]: 0.00019 s⁻¹
kon [10]: 303000 M⁻¹ s⁻¹
Kd (A/Perth/16/2009 HA): 140 pM
koff (A/Perth/16/2009 HA): 3.66e-05 s⁻¹
kon (A/Perth/16/2009 HA): 266000 M⁻¹ s⁻¹
Kd (A/Texas/50/2012 HA): 300 pM
koff (A/Texas/50/2012 HA): 8.93e-05 s⁻¹
kon (A/Texas/50/2012 HA): 307000 M⁻¹ s⁻¹
Kd (A/Panama/2007/1999 HA): 160 pM
koff (A/Panama/2007/1999 HA): 4.97e-05 s⁻¹
kon (A/Panama/2007/1999 HA): 315000 M⁻¹ s⁻¹

B5: mAb TJ5-13 (antibody, V domains shown)
V domain 1: QVQLVQSGAEVKKPGSSVKVSCEASGDTFTTYSGINWVRQAPGQGLEWMGGVLPNFGSPNYAQRFQGRITITVDRSTSLVHMELTNLRSDDTAVYYCTETGAYNSVGYFPYFQFRGQGTLVSVSS
V domain 2: QSVLTQPPSVSGAPGQRVTISCTGSSSNIGADYDVHWYQQLPGTAPKLLIFGNNNRPSGVPDRFSGSKSGTSASLAITGLQAEDEADYYCQSFDKSLSGSFVFGTGTKVTGQ
Kd [1]: 1880 pM and 3480 pM
Kd [2]: 1320 pM and 2090 pM
Kd [4]: 2340 pM and 6810 pM
Kd [11]: 390 pM and 800 pM
Kd [6]: 220 pM and 330 pM
Kd [7]: 130 pM and 390 pM
binding result [8]: no binding (tested: 1350 nM)

B6: mAb TJ5-13 (antibody, V domains shown)
V domain 1: QVQLVQSGAEVKKPGSSVKVSCEASGDTFTTYSGINWVRQAPGQGLEWMGGVLPNFGSPNYAQRFQGRITITVDRSTSLVHMELTNLRSDDTAVYYCTETGAYNSVGYFPYFQFRGQGTLVSVSS
V domain 2: QSVLTQPPSVSGAPGQRVTISCTGSSSNIGADYDVHWYQQLPGTAPKLLIFGNNNRPSGVPDRFSGSKSGTSASLAITGLQAEDEADYYCQSFDKSLSGSFVFGTGTKVTGQ
Kd (A/Victoria/361/2011 HA): 590 pM
koff (A/Victoria/361/2011 HA): 0.000128 s⁻¹
kon (A/Victoria/361/2011 HA): 218000 M⁻¹ s⁻¹
binding result [9]: no binding (tested: 100 nM rHA (exploratory assays))
Kd [10]: 1710 pM
koff [10]: 0.000166 s⁻¹
kon [10]: 98600 M⁻¹ s⁻¹
Kd (A/Perth/16/2009 HA): 270 pM
koff (A/Perth/16/2009 HA): 6.03e-05 s⁻¹
kon (A/Perth/16/2009 HA): 226000 M⁻¹ s⁻¹
Kd (A/Texas/50/2012 HA): 420 pM
koff (A/Texas/50/2012 HA): 9.53e-05 s⁻¹
kon (A/Texas/50/2012 HA): 257000 M⁻¹ s⁻¹
Kd (A/Panama/2007/1999 HA): 1140 pM
koff (A/Panama/2007/1999 HA): 0.000304 s⁻¹
kon (A/Panama/2007/1999 HA): 114000 M⁻¹ s⁻¹
